{"source": "the supplement of paper PMC10201428", "note": "± gives the standard deviation of the averaged measurements.", "data": [{"system": "VchCAST RNA-guided transposition machinery (E. coli BL21(DE3) host, lacZ target)", "assay": "relative integration efficiency (T-RL orientation) vs wild-type transposon end (log2 (normalized fold change)); transposon end mutated: left end; higher = more efficient transposition", "method_in_brief": "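In E. coli BL21(DE3), a T7-driven effector plasmid was paired with a pUC57 mini-transposon donor containing 1549 left-end or 1849 right-end barcoded transposon variants. Cells grew on plates with 0.1 mM IPTG at 37°C for 18 h. Relative integration efficiency was derived from Illumina reads of genomic integration junctions against input plasmids, as a log-transformed output/input barcode fold change normalised to reference barcodes.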", "values": [{"sequence": "AATGTTGTTGATGCAACCATAAAGTGATATTTAATAATTATTTATAATCAGCAACTTAACCACAACCATATATTGATATCTCACAAAACAACCATAAGTTGATATTTTCAAAATGTGAATCGAGTATTTCAGCAAAACTACTGCAGTAAGAA", "relative integration efficiency (log2)": "-5.07 ± 0.94"}, {"sequence": "AATGTTGTTGATGCAACCATAAAGTGATATTTAATAATTATTTATAATCAGCAACTTAACCACAAAACAACCATATATTGATATACAAAACAACCATAAGTTGATATTTTTGTGAATCGAGTATTTCAGCAAAACTACTGCAGTAAGAAAGT", "relative integration efficiency (log2)": "-4.08 ± 1.3"}, {"sequence": "AATGTTGTTGATGCAACCATAAAGTGATATTTAATACGGCGGGCGCCGACTACCAGGCCAACACCCCACCAACGCGCGGTCGCGAGACACCCCACCAACGCCTGGTCGCGGGGGTGTCCGATCTGATTTCAGCAAAACTACTGCAGTAAGAA", "relative integration efficiency (log2)": "-6.9 ± 1.3"}, {"sequence": "AATGTTGTTGATGCAACCATAAAGTGATATTTAATAATTATTTATAATCAGCAACTTAACCACAAAACAACCATATATTGATATCTCACAAAACAACACGCCTGGTCGCGGGGGTGTCCGATCTGATTTCAGCAAAACTACTGCAGTAAGAA", "relative integration efficiency (log2)": "-2.49 ± 0.9"}, {"sequence": "AATGTTGTTGATGCAACCATAAAGTGATATTATAATTATTTATAATCAGCAACTTAACCACAAAACAACCATATATTGATATCTCACAAAACAACCATAAGTTGATATTTTTGTGAATCGAGTATTTCAGCAAAACTACTGCAGTAAGAAAG", "relative integration efficiency (log2)": "-5.22 ± 1.1"}, {"sequence": "AATGTTGTTGATGACCAACGCCTGGTCGCGGGGATAATTATTTATAATCAGCAACTTAACCACAAAAACCAACGCGCGGTCGCGAGAACAAAAACCAACGCCCTGTCGCGGGCTGTGAATCGAGTATTTCAGCAAAACTACTGCAGTAAGAA", "relative integration efficiency (log2)": "< -10"}, {"sequence": "AATGTTGTTGATGCAACCATAAAGTGATATTTAATAATTCGGGCGCCGACTACCAGGCCAACACCCCACCAACGCGCGGTCGCGAGACACCCCACCAACGCCTGGTCGCGGGGGTGTCCGATCTGATTTCAGCAAAACTACTGCAGTAAGAA", "relative integration efficiency (log2)": "-7.09 ± 1"}, {"sequence": "AATGTTGTTGATGCAACCATAAAGTGATATTTAATAACTTCGTATAGTATACCTTATACGAAGTTATCAACCATATATTGATATCTCACAAAACAACCATAAGTTGATATTTTTGTGAATCGAGTATTTCAGCAAAACTACTGCAGTAAGAA", "relative integration efficiency (log2)": "-3.19 ± 0.87"}, {"sequence": "AATGTTGTTGATGCAACCATAAAGTGATATTTAATAATTATTTATAATCAGCCAACCATATATTGATATCTCAACTTAACCACAAAAACAAAACAACCATAAGTTGATATTTTTGTGAATCGAGTATTTCAGCAAAACTACTGCAGTAAGAA", "relative integration efficiency (log2)": "-7.27 ± 2.4"}, {"sequence": "AATGTTGTTGATGCAACCATAAAGTGATATTTAATAATTATTTATAACAACCATATATTGATATCTCACAAAACAACCATAAGTTGATATTTTTCAGCAACTTAACCACAAAATGTGAATCGAGTATTTCAGCAAAACTACTGCAGTAAGAA", "relative integration efficiency (log2)": "-5.63 ± 0.81"}, {"sequence": "AATGTTGTTGATGCAACCATAAAGTGATATTTAATAATTATTTATAATCAGCAACTTAACCAACCATATATTGATATCTCCACAAAAACAAAACAACCATAAGTTGATATTTTTGTGAATCGAGTATTTCAGCAAAACTACTGCAGTAAGAA", "relative integration efficiency (log2)": "-2.66 ± 0.88"}, {"sequence": "AATGTTGTTGATGCAACCATAAAGTGATATTTAATAATTATTTAGCCGACTACCAGGCCAACACCCCACCAACGCGCGGTCGCGAGACACCCCACCAACGCCTGGTCGCGGGGGTGTCCGATCTGATTTCAGCAAAACTACTGCAGTAAGAA", "relative integration efficiency (log2)": "-7.02 ± 1.2"}, {"sequence": "AATGTTGTTGATGCAACCATAAAGTGATATTTAATAATTATTTATAATCAGCCAACCATATATTGATATCTCACAAAACAACCATAAGTTGATATTTTAACTTAACCACAAAATGTGAATCGAGTATTTCAGCAAAACTACTGCAGTAAGAA", "relative integration efficiency (log2)": "-6.91 ± 2.5"}, {"sequence": "AATGTTGTTGATGCAACCATAAAGTGATATTTAATAATTATTTATAATCAGCAACTTAACCACCCCCACCAACGCGCGGTCGCGAGACACCCCACCAACGCCTGGTCGCGGGGGTGTCCGATCTGATTTCAGCAAAACTACTGCAGTAAGAA", "relative integration efficiency (log2)": "-6.56 ± 0.76"}, {"sequence": "AATGTTGTTGATGCAACCATAAAGTGATATTTAATAATTATTTATAATCCAACCATATATTGATATCTCACAAAACAACCATAAGTTGATATTTTTGTGAATCGAGTATTTCAGCAAAACTACTGCAGTAAGAAAGTTACTTCGTGGTATGG", "relative integration efficiency (log2)": "-6.76 ± 0.87"}, {"sequence": "AATGTTGTTGATGCAACCATAAAGTGATATTTAATAATTATTTATAATCAGACCAGGCCAACACCCCACCAACGCGCGGTCGCGAGACACCCCACCAACGCCTGGTCGCGGGGGTGTCCGATCTGATTTCAGCAAAACTACTGCAGTAAGAA", "relative integration efficiency (log2)": "-6.56 ± 1.8"}, {"sequence": "AATGTTGTTGATGCAACCATAAAGTGATATTTAAGAATTATGTCGTTCTAAACAAGAGATATTAGAACAACCATATATTGATATCTCACAAAACAACCATAAGTTGATATTTTTGTGAATCGAGTATTTCAGCAAAACTACTGCAGTAAGAA", "relative integration efficiency (log2)": "-4.29 ± 1.2"}, {"sequence": "AATGTTGTTGATGCAACCATAAAGTGATATTTAATAATTATTTATAATCAGCAAAGGCCAACACCCCACCAACGCGCGGTCGCGAGACACCCCACCAACGCCTGGTCGCGGGGGTGTCCGATCTGATTTCAGCAAAACTACTGCAGTAAGAA", "relative integration efficiency (log2)": "-6.56 ± 1.3"}]}]}
